For one data set, the target named is T1, BbLeuDH (Bdellovibrio bacteriovorus, UniProt A0A1Z3N8C0).
T1 construct: gene B9G79_08965
T1 sequence (A0A1Z3N8C0 1-376): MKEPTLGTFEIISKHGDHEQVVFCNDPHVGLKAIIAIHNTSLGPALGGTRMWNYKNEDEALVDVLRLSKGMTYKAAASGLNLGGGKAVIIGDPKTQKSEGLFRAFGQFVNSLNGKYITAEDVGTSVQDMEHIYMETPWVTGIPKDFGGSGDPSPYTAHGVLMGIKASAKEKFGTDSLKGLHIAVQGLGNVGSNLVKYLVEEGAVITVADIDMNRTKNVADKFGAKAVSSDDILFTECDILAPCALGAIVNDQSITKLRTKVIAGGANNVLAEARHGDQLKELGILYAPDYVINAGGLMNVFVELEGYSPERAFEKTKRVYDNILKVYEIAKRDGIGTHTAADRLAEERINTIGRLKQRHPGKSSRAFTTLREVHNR
In words: NADH absorbance at […] nm, specific activity. The note with it: reductive amination, 2 mM TMP, 0.1 mM NADH, 500 mM NH4Cl-NH3 buffer pH 9.5, 30 °C. It counts as biochemical.

The next data set deals with T2, TbLeuDH (Staphylospora marina, UniProt Z9JLC0NN60).
T2 sequence (Z9JLC0NN60 1-365): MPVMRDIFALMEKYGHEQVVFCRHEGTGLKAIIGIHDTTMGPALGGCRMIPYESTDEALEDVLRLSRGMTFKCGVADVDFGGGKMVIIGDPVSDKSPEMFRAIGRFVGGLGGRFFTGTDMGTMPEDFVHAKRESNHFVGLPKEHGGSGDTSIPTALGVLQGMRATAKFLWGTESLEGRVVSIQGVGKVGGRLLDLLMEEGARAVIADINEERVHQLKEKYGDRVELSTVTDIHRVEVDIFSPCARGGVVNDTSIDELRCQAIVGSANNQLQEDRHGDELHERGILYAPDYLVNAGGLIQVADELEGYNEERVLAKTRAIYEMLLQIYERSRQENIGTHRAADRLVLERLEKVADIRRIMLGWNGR
In words: NADH absorbance at […] nm, specific activity. It counts as biochemical. The following applies: reductive amination, 2 mM TMP, 0.1 mM NADH, 500 mM NH4Cl-NH3 buffer pH 9.5, 30 °C.

For the next data set, the target named is T3, CsLeuDH (Caldanaerobacter subterraneus, UniProt U5CQF4).
T3 construct: gene O163_07585
T3 sequence (U5CQF4 1-355): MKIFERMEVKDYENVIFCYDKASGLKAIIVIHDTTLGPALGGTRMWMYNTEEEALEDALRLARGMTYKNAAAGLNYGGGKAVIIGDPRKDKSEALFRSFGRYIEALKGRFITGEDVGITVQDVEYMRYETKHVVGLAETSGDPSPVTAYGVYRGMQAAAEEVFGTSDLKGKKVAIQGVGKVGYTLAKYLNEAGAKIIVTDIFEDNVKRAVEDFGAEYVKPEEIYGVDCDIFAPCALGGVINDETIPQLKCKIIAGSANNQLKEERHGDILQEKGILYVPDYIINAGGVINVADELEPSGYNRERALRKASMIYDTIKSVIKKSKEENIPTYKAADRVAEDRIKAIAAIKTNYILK
In words: NADH absorbance at […] nm, specific activity. The data set is classed as biochemical. The following applies: reductive amination, 2 mM TMP, 0.1 mM NADH, 500 mM NH4Cl-NH3 buffer pH 9.5, 30 °C.

Substrate in data set [1]: CC(C)(C)C(=O)C(=O)O
Kind of data set: purified protein. The following applies: reductive amination, TMP varied 1-20 mM, 0.3 mM NADH; standard assay 500 mM NH4Cl-NH3 buffer pH 9.5, 30 °C; pH 9.5; 30.0 °C. It counts as biochemical, Planifilum fimeticola.

Substrate in data set [2]: CC(C)C[C@H](N)C(=O)O
In words: purified protein. It counts as biochemical, Planifilum fimeticola. The note with it: oxidative deamination, L-leucine varied 0.1-3 mM, 1 mM NAD+.

Substrate in data set [3]: NC(=O)C1=CN([C@@H]2O[C@H](COP(=O)(O)OP(=O)(O)OC[C@H]3O[C@@H](n4cnc5c(N)ncnc54)[C@H](O)[C@@H]3O)[C@@H](O)[C@H]2O)C=CC1
Kind of data set: purified protein. The data set is classed as biochemical, Planifilum fimeticola. The note with it: reductive amination, NADH varied 0.05-0.35 mM, 40 mM TMP; standard assay 500 mM NH4Cl-NH3 buffer pH 9.5, 30 °C; pH 9.5; 30.0 °C; varied: cofactor.

Substrate in data set [4]: NC(=O)c1ccc[n+]([C@@H]2O[C@H](COP(=O)(O)OP(=O)(O)OC[C@H]3O[C@@H](n4cnc5c(N)ncnc54)[C@H](O)[C@@H]3O)[C@@H](O)[C@H]2O)c1
In words: purified protein. The data set is classed as biochemical, Planifilum fimeticola. The following applies: oxidative deamination, NAD+ varied 0.1-4 mM, 4 mM L-leucine; varied: cofactor.

On to `CC(C)(C)C(=O)C(=O)O` [Trimethylpyruvate], for which the “NADH absorbance at 340 nm, specific activity” value at BbLeuDH, on TbLeuDH and on CsLeuDH was “All four soluble leucine dehydrogenases have catalytic activity for TMP” in each case.

B1: PfLeuDH (Planifilum fimeticola) (protein)
chain: MKWFDYMERYDYEQLIFCQDKNSGLKAIIAIHDTTLGPALGGVRMWKYDSEEEAIVDALRLARGMTYKAAAAGLNLGGGKTVIIGDPRKDKNEEMFRALGRFIQGLNGRYITAEDVGTTEEDMDIIHQETRFVTGVSPAFGSSGNPSPVTAYGVYRGMKAAAKIAFGSDSLEGKTVAVQGVGSVAYHLCKHLHEEGARLIVTDIVRENVERAVRDFGAESVAPDKIYDVECDIFSPCALGAIINDETLPRLKCRVVAGSANNQLKEERHGDRLEELGIIYVPDYVINAGGLINVADELFGYNRERAMKKVETIYDNVLRVFEIAKRDGIPSYKAADRMAEERIESLTRSRSTFLRNERNVLNMV
As usually defined, the Km is the concentration of substrate that gives half-maximal velocity. What is called Vmax is the rate approached at saturating substrate. As a reminder, the kcat is the number of substrate molecules converted per active site and unit of time at saturation. By kcat/Km is commonly meant the turnover number divided by the Michaelis constant. As to B1, the Michaelis constant (Km) in “purified protein [1]” stood at 3080 µM; in the data set “purified protein [2]”, 100 µM; in “purified protein [3]” it was 60 µM; in “purified protein [4]” it was 110 µM. In addition, the Vmax in “purified protein [1]” stood at 58.6 µmol/min/mg; in “purified protein [2]” it was 3.49 µmol/min/mg; in “purified protein [3]”, 9.09 µmol/min/mg; in “purified protein [4]” it was 2.72 µmol/min/mg. Also, the turnover number (kcat) is 39.1 s⁻¹ in “purified protein [1]”, 2.33 s⁻¹ in “purified protein [2]”, 6.06 s⁻¹ in the data set “purified protein [3]” and 1.81 s⁻¹ in the data set “purified protein [4]”. Also, the kcat/Km in “purified protein [1]” is 12700 M⁻¹ s⁻¹; in the data set “purified protein [2]”, 23300 M⁻¹ s⁻¹; in the data set “purified protein [3]”, 101000 M⁻¹ s⁻¹; in the data set “purified protein [4]”, 16400 M⁻¹ s⁻¹.

The record behind these values is article PMC8042219, “Expression of Novel L-Leucine Dehydrogenase and High-Level Production of L-Tert-Leucine Catalyzed by Engineered Escherichia coli” (Frontiers in Bioengineering and Biotechnology, 2021).
